Target: His-SIRT6 (UniProt Q8N6T7 1-355)
Test: pull-down

Sequence of His-SIRT6 (Q8N6T7 whole entry): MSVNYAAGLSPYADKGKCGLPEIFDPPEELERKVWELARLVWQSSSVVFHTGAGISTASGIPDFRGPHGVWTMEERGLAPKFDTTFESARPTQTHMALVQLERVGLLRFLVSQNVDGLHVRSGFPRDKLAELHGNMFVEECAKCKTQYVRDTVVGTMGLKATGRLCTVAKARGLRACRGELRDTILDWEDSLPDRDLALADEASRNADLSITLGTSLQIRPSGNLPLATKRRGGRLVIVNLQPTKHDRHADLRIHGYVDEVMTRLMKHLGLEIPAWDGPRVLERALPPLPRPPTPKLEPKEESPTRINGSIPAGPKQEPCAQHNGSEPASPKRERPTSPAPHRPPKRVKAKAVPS

B1: GST-PKCζ N-terminus (1-251 aa) (domain or fragment, UniProt Q05513 1-251, looked up)
chain: MPSRTGPKMEGSGGRVRLKAHYGGDIFITSVDAATTFEELCEEVRDMCRLHQQHPLTLKWVDSEGDPCTVSSQMELEEAFRLARQCRDEGLIIHVFPSTPEQPGLPCPGEDKSIYRRGARRWRKLYRANGHLFQAKRFNRRAYCGQCSERIWGLARQGYRCINCKLLVHKRCHGLVPLTCRKHMDSVMPSQEPPVDDKNEDADLPSEETDGIAYISSSRKHDSIKDDSEDLKPVIDGMDGIKISQGLGLQD
B1: binds.

— PMC6277223 (Neoplasia (New York, N.Y.), 2018)
